The values that follow come from patent US20130323234A1 (Pfizer, published 2013).

Assay [1] concerns the target IGF1R on the human colon carcinoma cell line Colo205 (human, UniProt P08069 31-1367). Nature of the assay: cell-based or functional assay.
In assay [2] the target is IGF1R (UniProt P08069 31-932, limits assumed). The experiment in a line: cell-based or functional assay.

B1: 2.12.1.fx antibody (antibody, human IgG2, kappa, V domains shown)
VH: QVQLVESGGGLVKPGGSLRLSCAASGFTFSDYYMSWIRQAPGKGLEWVSYISSSGSTRDYADSVKGRFTISRDNAKNSLYLQMNSLRAEDTAVYYCVRDGVETTFYYYYYGMDVWGQGTTVTVSS
VL: DIQMTQSPSSLSASVGDRVTITCRASQDIRRDLGWYQQKPGKAPKRLIYAASRLQSGVPSRFSGSGSGTEFTLTISSLQPEDFATYYCLQHNNYPRTFGQGTKLVIKR
B1: the “% IGF1R downregulated” value worked out at 48% in assay [1] and 36% in assay [2].
